{"source": "paper PMC3154423", "binders": {"B1": {"name": "TRE duplex 15-mer (dsDNA)", "DNA 1": "CGCGTGACTCACCCC", "DNA 2": "GGGGTGAGTCACGCG"}}, "test_in_all_cases": "ITC", "key": {"[1]": {"biological_target": "Jun bZIP K258A;Fos bZIP R143A (human;human, UniProt P05412;P01100 252-315;137-200, K258A|R143A)", "sequence (P05412 252-315 K258A, chain 1 of 2)": "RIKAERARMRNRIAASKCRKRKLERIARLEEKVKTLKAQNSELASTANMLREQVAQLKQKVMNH", "sequence (P01100 137-200 R143A, chain 2 of 2)": "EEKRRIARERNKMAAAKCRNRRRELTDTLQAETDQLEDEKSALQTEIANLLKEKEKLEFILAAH"}, "[2]": {"biological_target": "Jun bZIP R263A;Fos bZIP K153A (human;human, UniProt P05412;P01100 252-315;137-200, R263A|K153A)", "sequence (P05412 252-315 R263A, chain 1 of 2)": "as the sequence (P05412 252-315 K258A, chain 1 of 2) above, with A7K, R12A counted along it", "sequence (P01100 137-200 K153A, chain 2 of 2)": "as the sequence (P01100 137-200 R143A, chain 2 of 2) above, with A7R, K17A counted along it"}, "[3]": {"biological_target": "Jun bZIP R263A;Fos bZIP R146A (human;human, UniProt P05412;P01100 252-315;137-200, R263A|R146A)", "sequence (P05412 252-315 R263A, chain 1 of 2)": "as the sequence (P05412 252-315 K258A, chain 1 of 2) above, with A7K, R12A counted along it", "sequence (P01100 137-200 R146A, chain 2 of 2)": "as the sequence (P01100 137-200 R143A, chain 2 of 2) above, with A7R, R10A counted along it"}, "[4]": {"biological_target": "Jun bZIP R263A;Fos bZIP K148A (human;human, UniProt P05412;P01100 252-315;137-200, R263A|K148A)", "sequence (P05412 252-315 R263A, chain 1 of 2)": "as the sequence (P05412 252-315 K258A, chain 1 of 2) above, with A7K, R12A counted along it", "sequence (P01100 137-200 K148A, chain 2 of 2)": "as the sequence (P01100 137-200 R143A, chain 2 of 2) above, with A7R, K12A counted along it"}, "[5]": {"biological_target": "Jun bZIP K273A;Fos bZIP R143A (human;human, UniProt P05412;P01100 252-315;137-200, K273A|R143A)", "sequence (P05412 252-315 K273A, chain 1 of 2)": "as the sequence (P05412 252-315 K258A, chain 1 of 2) above, with A7K, K22A counted along it", "sequence (P01100 137-200 R143A, chain 2 of 2)": "as the sequence (P01100 137-200 R143A, chain 2 of 2) above"}, "[6]": {"biological_target": "Jun bZIP K258A;Fos bZIP R158A (human;human, UniProt P05412;P01100 252-315;137-200, K258A|R158A)", "sequence (P05412 252-315 K258A, chain 1 of 2)": "as the sequence (P05412 252-315 K258A, chain 1 of 2) above", "sequence (P01100 137-200 R158A, chain 2 of 2)": "as the sequence (P01100 137-200 R143A, chain 2 of 2) above, with A7R, R22A counted along it"}, "[7]": {"biological_target": "Jun bZIP K258A;Fos bZIP R144A (human;human, UniProt P05412;P01100 252-315;137-200, K258A|R144A)", "sequence (P05412 252-315 K258A, chain 1 of 2)": "as the sequence (P05412 252-315 K258A, chain 1 of 2) above", "sequence (P01100 137-200 R144A, chain 2 of 2)": "as the sequence (P01100 137-200 R143A, chain 2 of 2) above, with A7R, R8A counted along it"}, "[8]": {"biological_target": "Jun bZIP R261A;Fos bZIP R144A (human;human, UniProt P05412;P01100 252-315;137-200, R261A|R144A)", "sequence (P05412 252-315 R261A, chain 1 of 2)": "as the sequence (P05412 252-315 K258A, chain 1 of 2) above, with A7K, R10A counted along it", "sequence (P01100 137-200 R144A, chain 2 of 2)": "as the sequence (P01100 137-200 R143A, chain 2 of 2) above, with A7R, R8A counted along it"}, "[9]": {"biological_target": "Jun bZIP K268A;Fos bZIP R144A (human;human, UniProt P05412;P01100 252-315;137-200, K268A|R144A)", "sequence (P05412 252-315 K268A, chain 1 of 2)": "as the sequence (P05412 252-315 K258A, chain 1 of 2) above, with A7K, K17A counted along it", "sequence (P01100 137-200 R144A, chain 2 of 2)": "as the sequence (P01100 137-200 R143A, chain 2 of 2) above, with A7R, R8A counted along it"}, "[10]": {"biological_target": "Jun bZIP K258A;Fos bZIP R157A (human;human, UniProt P05412;P01100 252-315;137-200, K258A|R157A)", "sequence (P05412 252-315 K258A, chain 1 of 2)": "as the sequence (P05412 252-315 K258A, chain 1 of 2) above", "sequence (P01100 137-200 R157A, chain 2 of 2)": "as the sequence (P01100 137-200 R143A, chain 2 of 2) above, with A7R, R21A counted along it"}, "[11]": {"biological_target": "Jun-Jun bZIP R272A (human, UniProt P05412 252-315, R272A)", "sequence (P05412 252-315 R272A)": "as the sequence (P05412 252-315 K258A, chain 1 of 2) above, with A7K, R21A counted along it"}, "[12]": {"biological_target": "Jun bZIP R270A;Fos bZIP R143A (human;human, UniProt P05412;P01100 252-315;137-200, R270A|R143A)", "sequence (P05412 252-315 R270A, chain 1 of 2)": "as the sequence (P05412 252-315 K258A, chain 1 of 2) above, with A7K, R19A counted along it", "sequence (P01100 137-200 R143A, chain 2 of 2)": "as the sequence (P01100 137-200 R143A, chain 2 of 2) above"}, "[13]": {"biological_target": "Jun bZIP R272A;Fos bZIP R158A (human;human, UniProt P05412;P01100 252-315;137-200, R272A|R158A)", "sequence (P05412 252-315 R272A, chain 1 of 2)": "as the sequence (P05412 252-315 K258A, chain 1 of 2) above, with A7K, R21A counted along it", "sequence (P01100 137-200 R158A, chain 2 of 2)": "as the sequence (P01100 137-200 R143A, chain 2 of 2) above, with A7R, R22A counted along it"}, "[14]": {"biological_target": "Jun bZIP K268A;Fos bZIP K153A (human;human, UniProt P05412;P01100 252-315;137-200, K268A|K153A)", "sequence (P05412 252-315 K268A, chain 1 of 2)": "as the sequence (P05412 252-315 K258A, chain 1 of 2) above, with A7K, K17A counted along it", "sequence (P01100 137-200 K153A, chain 2 of 2)": "as the sequence (P01100 137-200 R143A, chain 2 of 2) above, with A7R, K17A counted along it"}, "[15]": {"biological_target": "Jun bZIP K258A;Fos bZIP R155A (human;human, UniProt P05412;P01100 252-315;137-200, K258A|R155A)", "sequence (P05412 252-315 K258A, chain 1 of 2)": "as the sequence (P05412 252-315 K258A, chain 1 of 2) above", "sequence (P01100 137-200 R155A, chain 2 of 2)": "as the sequence (P01100 137-200 R143A, chain 2 of 2) above, with A7R, R19A counted along it"}, "[16]": {"biological_target": "Jun bZIP R263A;Fos bZIP R157A (human;human, UniProt P05412;P01100 252-315;137-200, R263A|R157A)", "sequence (P05412 252-315 R263A, chain 1 of 2)": "as the sequence (P05412 252-315 K258A, chain 1 of 2) above, with A7K, R12A counted along it", "sequence (P01100 137-200 R157A, chain 2 of 2)": "as the sequence (P01100 137-200 R143A, chain 2 of 2) above, with A7R, R21A counted along it"}}, "data": [{"binder": "B1", "values": [{"measurement": "Kd", "setting": "[1]", "result": "860 ± 70", "unit": "nM"}, {"measurement": "Kd", "setting": "[2]", "result": "1150 ± 80", "unit": "nM"}, {"measurement": "Kd", "setting": "[3]", "result": "1040 ± 40", "unit": "nM"}, {"measurement": "Kd", "setting": "[4]", "result": "1130 ± 10", "unit": "nM"}, {"measurement": "Kd", "setting": "[5]", "result": "1220 ± 150", "unit": "nM"}, {"measurement": "Kd", "setting": "[6]", "result": "960 ± 60", "unit": "nM"}, {"measurement": "Kd", "setting": "[7]", "result": "2780 ± 50", "unit": "nM"}, {"measurement": "Kd", "setting": "[8]", "result": "1840 ± 80", "unit": "nM"}, {"measurement": "Kd", "setting": "[9]", "result": "1790 ± 20", "unit": "nM"}, {"measurement": "Kd", "setting": "[10]", "result": "1500 ± 80", "unit": "nM"}, {"measurement": "Kd", "setting": "[11]", "result": "490 ± 40", "unit": "nM"}, {"measurement": "Kd", "setting": "[12]", "result": "1600 ± 50", "unit": "nM"}, {"measurement": "Kd", "setting": "[13]", "result": "620 ± 40", "unit": "nM"}, {"measurement": "Kd", "setting": "[14]", "result": "470 ± 60", "unit": "nM"}, {"measurement": "Kd", "setting": "[15]", "result": "5380 ± 120", "unit": "nM"}, {"measurement": "Kd", "setting": "[16]", "result": "1740 ± 30", "unit": "nM"}]}]}
